T1: recombinant human ZNRF3 extracellular domain (human, UniProt Q9ULT6 56-219)
T1 construct: extracellular domain; also called huZNRF3; human ZNRF3 ECD
T1 sequence (looked up): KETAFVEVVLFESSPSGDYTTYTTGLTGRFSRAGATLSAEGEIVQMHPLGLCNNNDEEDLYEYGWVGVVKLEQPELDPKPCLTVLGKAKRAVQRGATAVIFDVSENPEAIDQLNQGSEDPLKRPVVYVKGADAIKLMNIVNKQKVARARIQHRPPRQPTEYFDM

T2: recombinant human RNF43 extracellular domain (human, UniProt Q68DV7 24-197)
T2 construct: extracellular domain; also called huRNF43; human RNF43 ECD
T2 sequence (looked up): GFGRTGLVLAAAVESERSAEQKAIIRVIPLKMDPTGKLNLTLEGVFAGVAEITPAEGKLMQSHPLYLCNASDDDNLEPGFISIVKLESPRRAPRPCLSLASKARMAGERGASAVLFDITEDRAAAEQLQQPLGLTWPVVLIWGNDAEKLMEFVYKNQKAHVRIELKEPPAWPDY

B1: ZNRF3-117 (antibody, V domains shown)
VH: EIQLQESGPGLVKPSQSLSLTCSVTGYTITSDYDWSWIRKFPGNKMEWMGYINYSGSTNYNPSLKSRISFTRDTSKNQFFLQLNSITTDDTATYYCARYGPYYGFSDWYFDFWGPGTMVTVSS
VL: DVQMTQSPSYLAASPGESVSISCKASQSISNYLAWYQQKPGKTYRLLIYSGSTLQSGTPSRFSGSGSGTDFTLTIRSLEPEDFGLYYCQQYYEKPLTFGSGTKLEIK
notes: Rat clone; VH/VL only
B2: ZNRF3-163 (antibody, V domains shown)
VH: EVQLEESGGGLVQPGRSMKFSCAASGFTFSNYYMAWVRQAPSKGLEWVASISTGGGDVYYRDSVKGRFTISRDNAKSTLYLQMDSLRSEDTATYYCARHSGGRIRARGHYFDYWGQGVMVTVSS
VL: DIQMTQSPASLSASLGETVSIECLASEDISNDLAWYQQKSGKSPQVLIYGVSRLQDGVPSRFSGSGSGTRYSLKISGMQPEDEADYFCQQSYKYPYTFGAGTKLELK
notes: Rat clone; VH/VL only
B3: ZNRF3-90 (antibody, V domains shown)
VH: EVQLVESGGGLVQPGRSMKLSCAASGFTFSNYYMAWVRQAPRKGLEWVASITTGGTNTYYRDSVRGRFTISRDNAKSTLYLQMDSLRSEETATYYCARHSGGLIRARGHYFHYWGQGVMVTVSS
VL: B2 VL with T18I, D28G, I48V, G50A, V51A, K93T
notes: Rat clone; VH/VL only
B4: ZNRF3-333 (antibody, V domains shown)
VH: QSLEESGGGLVQPEGSLTLTCTASGIDFSARSYMCWVRQAPGKGLEWVACIYTGSSGSTYYANWAKGRFTISKTSSTTVTLRMTSLTAADTASYFCARGAYVGYGFAAYFTLWGPGTLVTVSS
VL: DIVMTQTPASVEAAVGGTVTINCQASQSISSYLAWYQQKPGQPPKLLIYYASNLESGVPSRFKGSGSGTQFTLTISDLECADAATYYCQAYYSSITGWAFGGGTEVVVK
notes: Rabbit clone; VH/VL only
B5: ZNRF3-171 (antibody, V domains shown)
VH: QVQLHQSGTELARPGTSVKLSCKASGYTFSRFYINWVKKRPGQGLEWIGYIDPGNGGTFHSEKFKDKASLTADTSSSTAYMVLGSLAPEDSAFYFCVRGYYSSYDWFAYWGQGTLVTVSS
VL: DIQLTQSPSSMSASLGDRVSLTCQSSQGIGNYLSWYQHKPGEPPKPILYYATNLADGVPSRFSGSRSGSDYSLTISSLESEDTAIYYCLQYDEYPYTFGPGTKLELR
notes: Rat clone; VH/VL only
B6: ZNRF3-17 (antibody, V domains shown)
VH: EVQLVESGGGLVQPGGSLKLSCAASGFTFSNYDMAWVRQAPTKGLEWVASISTGGGKTYYRDSVKGRLTISRDNAKNTQYLQMDSLRSEDTATYYCARLGPAYSGEWFAYWGQGTLVTVSS
VL: DTVLTQSPALAVSPGERVTISCGASEGVNTRMHWYQQRSGQQPKLLIYGSSNLDSGVPDRFSGSGSGTDFTLTIDPVEAKDAATYFCQQSWNVPNTFGAGTKLELK
notes: Rat clone; VH/VL only
B7: ZNRF3-55 (antibody, V domains shown)
VH: B6 VH with Q3H, K43R, T53P, D73N, K76E, M83I, A97S
VL: DTVLTQSPALTVSPGDKITISCRASEGVNTRIHWYQQKSGQQPKLLIYGASNLDSGVPDRFSGSGFGTDFTLTIDPVEASDTATYFCQQSWNVPHTFGGGTKLELK
notes: Rat clone; VH/VL only
B8: ZNRF3-131 (antibody, V domains shown)
VH: EVQVVESGGGLVQPGRSLKVSCAASGFTFSRYGMAWVRQAPTKGLEWVASISTGGENTYYRDSVKGRFTISRDNVKNTLYLQMDSLRSEDTATYYCARHGRVLNYFDYWGQGVMVTVSL
VL: DIQMTQSPASLSASLGETVSIECLTSEDIYTYLAWYQQKPGKSPHLLIFAASRLQDGVPSRFSGSGSGTQYSLKISGMQPEDEGDYFCLQGSKFPYTFGAGTKLDLK
notes: Rat clone; VH/VL only
B9: ZNRF3-101 (antibody, V domains shown)
VH: QVQLKESGPGLVQPTQTLSLTCTVSGFSLTSSTVSWVRQPPGKGLEWIAAISSAENTYYNSGLKSRLSISRDTSKSQVFLKMNSLQTEDTAMYFCAGGRILETLFDSWGQGVMVTVSS
VL: DIVLTQSPALAVSLGQRATISCKTNQNVDFYGKTYMHWYQQKRGQQPKLLIYLASNLASGIPARFSGRGSGTDFTLTIDPVATDDTATYYCQQTRSLPPTFGAGTKLELK
notes: Rat clone; VH/VL only
B10: ZNRF3-128 (antibody, V domains shown)
VH: EVQLVESGGGLVQPGKSLKLSCSASGFTFSSYGMHWIRQAPGKGLDWVAYISTNSATVYADAVKGRFTISRDNAKNTLYLQLNSLKSEDTAIYYCARSGYTTYMPFTYWGQGTLVTVSS
VL: DVLMTQTPVSLPVSLGGQVSISCRSSQSLVHSDGNTYLHWYLQKPGQSPQLLIYRVSNRFSGVSDRFSGSGSGTDFTLKISRVEPDDLGIYYCLQTTHFLTWTFGGGTKLELK
notes: Rat clone; VH/VL only
B11: ZNRF3-195 (antibody, V domains shown)
VH: EVQLVESGGGLVQPGNSLNLSCSASGFPFSTYGMHWIRQAPGKGLDWVAYISYNSGTVYADAVKGRFTISRDNAKNTLYLQLNSLKSEDTAIYYCARGYYDGYYRYWGQGVMVTVSS
VL: DIVMTQSPFSLAVSEGEMVTINCKSSQSLLSSGNQKNYLAWYQQRPGQSPKLLIYHASTRQSGVPDRFIGSGSGTDFTLTISDVQAEDLADYYCLQHYSSPTFGSGTKLEIK
notes: Rat clone; VH/VL only
B12: ZNRF3-6 (antibody, V domains shown)
VH: EVQLVESGGGLVPPGKSLKLSCSASGFPFSNYGMHWIRQAPGKGLDWVGYISSNSGTIYADAVKGRFTISRDNAKNTLYLLINSLKSEDTAMYYCARGYFDGYYRFWGQGVMVTVSS
VL: B11 VL with E17D, N22M, K24R, R45K
notes: Rat clone; VH/VL only
B13: RNF43-128 (antibody, V domains shown)
VH: EVQLQESGPGLVKPSQSLSLTCSVTGFSITSHYKWNWIRKFPRNKLEWMGYIDNSGSTNYIPSLKSRISITRDTSKNQFFLQVNSVTTEDTATYYCARDCLDWGQGVMVTVSS
VL: DVVLTQTPPTLSATIGQSVSISCRSSQSLLHSNGNTYLHWLIQRPGQSPQLLIYLVSRLESGVPNRFSGSGSGTDFSVKISGVEAEDLGIYYCVQDTHTPWTFGGGTKLELK
notes: Rat clone; VH/VL only
B14: RNF43-5 (antibody, V domains shown)
VH: QSVEESGGRLVTPGTPLTLTCTVSGFSLNTYAMGWVRQAPGKGLEWIGTIGSSGSTYYATWAKGRFTVSKTSTTVDLKITSPTTEDTATYFCVRGADGLNYYPIWGPGTLVTVSL
VL: AQVLTQTPSSVSAAVGGTVTINCQASQSVYNNKNLAWYQQKPGQPPKLLIYDASDLASGVSSRFKGSGSGTQFTLTISGVQCDDAATYYCQGEFNCDKGDCNAFGGGTEVVVK
notes: Rabbit clone; VH/VL only
B15: RNF43-2 (antibody, V domains shown)
VH: QSLEESGGDLVKPGASLTLTCTASGFSFSSSYYMCWVRQAPGKGLELIGCGFTGRHYTYYASWAKGRFTISKSSSTTVTLQMTSLTAADTATYFCARKSGSDYDYFDLWGPGTLVTVSS
VL: AYDMTQTPASVEAVVGGTVTIKCQASQSINSWLSWYQQKPGQRPKLLIYRASTLASGVSSRFKGSGSGTEFTLTISDLECADAATYYCQQGYVSSNINNVFGGGTEVVVK
notes: Rabbit clone; VH/VL only
B16: RNF43-11 (antibody, V domains shown)
VH: QEQLVESGGGLVQPEGSLTLTCKASGFDFSSNVMCWVRQAPGKGLEWIGCIYTGSSGSTYYASWAKGRFTITRSTSLNTVTLQMTSLTAADTATYFCARYVSGGEYYNLWGPGTLVTVSS
VL: ALVMTQTPASVEAAVGGTVTINCQASESISNWLAWYQQKPGQPPKLLIYKASTLASGVSSRFKGSGSGTQFTLTISDLECADAATYYCQQGSSWINIEDVFGGGTEVVVK
notes: Rabbit clone; VH/VL only
B17: RNF43-20 (antibody, V domains shown)
VH: REQLVESGGGLVQPEGSLTLTCKASGFDFSSNVMCWVRQAPGKGLEWIGCIYTGSGSTAYASWAKGRFTITRSTSLNTVTLQMTSLTAADTATYFCARYVSGGEYYNLWGPGTLVTVSS
VL: B16 VL with N22K, E27Q, N31S, W32Y, A34N, I95N, N96S, D99N, V100I
notes: Rabbit clone; VH/VL only
B18: RNF43-16 (antibody, V domains shown)
VH: QSVEESGGRLVTPGTPLTLTCTVSGFFLSSYYMSWVRQAPGKGLEWIGYIYAGSGSTYYASWAKGRFTISKTSTTVDLKITSPTTEDTATYFCVRDINGGDYGMDPWGPGTLVTVSS
VL: DIVMTQTPASVSAAVGGTVTIKCQASESIDSGLAWYQQKPGQRPKLLIYAASNLASGVSSRFKGSGSGTEYSLTISGVQCDDAATYYCQCTYGSVTSNTYGIAFGGGTEVVVK
notes: Rabbit clone; VH/VL only

Changes are numbered by the printed parent chain.

The target of one assay is T1, recombinant human ZNRF3 extracellular …. Nature of the assay: SPR Biacore 8K; antibody captured on Protein A; ZNRF3 ECD analyte; 25 C. On the procedure: Antibodies were screened for binding to recombinant human RNF43 and ZNRF3 ECDs using a Biacore® 8 k instrument (GE Life Sciences). Briefly, antibodies diluted to 1 μg/ml in 1×HBSP buffer (Cytiva, BR100368) were captured on a Sensor Chip Protein A (GE Life Sciences) using a flow rate of 10 μl/minute and a contact time of 60 seconds. Binding of recombinant human RNF43 and ZNRF3 extracellular domain to the captured antibodies was analyzed at 25° C. using a single cycle kinetics method with a flow rate of 30 μl/minute, a contact time of 180 seconds and a dissociation time of 600 seconds. The concentration of recombinant human RNF43 and ZNRF3 extracellular domain in the single cycle kinetics were 0, 0.8, 4, 20, and 100 nM. Between cycles, the chip was regenerated using 10 mM Glycine HCl pH 1.5 injected for 30 seconds at 30 μl/minute. Data were evaluated using Biacore 8K Evaluation software (GE Life Sciences). Kinetic constants were obtained using a 1:1 binding model with the parameter RI set to zero. Cell surface ligase antibodies with sub-nanomolar affinities may provide advantages in certain instances, for example, in the degradation efficiency which is correlated with the durability of the ternary complex as shown in FIG. 5D.
Background: SPR reads the build-up and loss of mass on a sensor chip optically.
Usually Kd stands for the equilibrium constant for the complex coming apart. Regarding B1, the Kd came out at 0.2 nM.

For the molecule B2, the Kd amounted to 0.61 nM. Same read-out and setting: as for B3, the figure is 0.27 nM. As for B4, the Kd was 8.7 nM. For B5, the Kd was determined as 1.01 nM.

On to B6, for which the Kd turned out to be 0.04 nM. Same read-out and setting: as for B7, the figure is 0.02 nM. On the same count and under the same terms, with B8 the figure was 2.39 nM. The same measure, in the same setting: as for B9, the figure is 0.07 nM. With B10, the dissociation constant Kd was found to be 3.16 nM. In the case of B11, the Kd was determined as 0.27 nM.

In the case of B12, the Kd is 0.12 nM.

In a further assay the target is T2, recombinant human RNF43 extracellular …. Nature of the assay: SPR Biacore 8K; antibody captured on Protein A; RNF43 ECD analyte; 25 C.
With B13, the binding result is recorded as “no binding”. For B14, the Kd came out at 1.1 nM. Take B15: the binding result is on record as “no binding”. Take B16: the Kd stood at 27.7 nM. Take B17: the binding result was “no binding”.

B18: the Kd came out at 37.8 nM.

Source of the values: patent US20240101708A1 (Genentech, published 2024).
